The supplement of paper PMC9876800

System: peptide library, one residue held at a place counted from the S/T acceptor
Assay: relative phosphorylation of the sub-library (ratio to the mean residue at this position); higher = residue favoured
Settings: human
Method in brief: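 Relative sub-library phosphorylation is the ratio of each sub-library's signal to the mean residue at that position. The signal came from phosphorimaging of spots on streptavidin membranes, quantified by densitometry, after purified recombinant kinases reacted with biotinylated degenerate peptide sub-libraries in 384-well plates. Reactions held 50 μM peptide and 50 μM ATP spiked with γ-32P-ATP for 90 min under kinase-specific conditions.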

AAK1, construct: aa27-365, sequence (Q2M2I8 27-365, looked up): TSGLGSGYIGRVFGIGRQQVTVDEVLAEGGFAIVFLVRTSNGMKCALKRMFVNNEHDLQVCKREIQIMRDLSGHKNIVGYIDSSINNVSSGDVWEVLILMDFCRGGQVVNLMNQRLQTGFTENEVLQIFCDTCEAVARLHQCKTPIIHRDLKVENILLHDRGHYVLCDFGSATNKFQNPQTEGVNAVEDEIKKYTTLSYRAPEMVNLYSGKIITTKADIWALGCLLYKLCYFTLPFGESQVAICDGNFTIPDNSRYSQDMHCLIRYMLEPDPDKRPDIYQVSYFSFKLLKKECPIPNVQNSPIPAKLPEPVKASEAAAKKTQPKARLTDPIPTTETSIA
ACVR2B, construct: aa161-end, sequence (Q13705 161-512, looked up): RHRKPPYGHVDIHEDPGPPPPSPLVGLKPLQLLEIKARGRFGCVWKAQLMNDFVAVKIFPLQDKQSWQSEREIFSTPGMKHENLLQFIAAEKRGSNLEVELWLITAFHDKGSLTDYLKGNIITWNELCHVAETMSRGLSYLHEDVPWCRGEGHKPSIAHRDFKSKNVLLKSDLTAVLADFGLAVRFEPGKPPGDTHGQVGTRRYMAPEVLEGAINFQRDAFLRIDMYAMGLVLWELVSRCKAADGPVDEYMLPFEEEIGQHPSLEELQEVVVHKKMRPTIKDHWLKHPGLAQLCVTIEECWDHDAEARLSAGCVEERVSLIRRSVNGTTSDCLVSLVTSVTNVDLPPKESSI
ACVR1, construct: aa175-end, sequence (Q04771 175-509, looked up): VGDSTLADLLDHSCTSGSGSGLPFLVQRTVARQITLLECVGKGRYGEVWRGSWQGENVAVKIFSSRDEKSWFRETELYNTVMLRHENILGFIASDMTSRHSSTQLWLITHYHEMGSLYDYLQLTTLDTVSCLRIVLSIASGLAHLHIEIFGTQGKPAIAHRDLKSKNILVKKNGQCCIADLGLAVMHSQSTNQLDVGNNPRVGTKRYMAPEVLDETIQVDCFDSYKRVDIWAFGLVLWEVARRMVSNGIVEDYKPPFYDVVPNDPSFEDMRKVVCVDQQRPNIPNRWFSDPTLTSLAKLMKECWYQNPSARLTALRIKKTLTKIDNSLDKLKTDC

AAK1, construct: aa27-365 (from UniProt Q2M2I8)
relative phosphorylation
Settings	at +1	at +2	at +3	at +4	at -1	at -2	at -3	at -4	at -5
A fixed	0.53	1.27	0.989	1.1	0.654	0.915	1.9	1.2	0.482
D fixed	0.174	0.939	0.688	0.662	0.274	1.37	0.462	0.565	0.273
E fixed	0.167	0.89	0.631	0.778	0.248	1.08	0.629	0.951	0.26
F fixed	0.219	0.826	0.731	0.89	0.926	0.571	0.828	0.883	0.722
G fixed	12.3	1.27	1.57	1.19	1.2	0.48	0.87	1.09	0.416
H fixed	0.272	1.05	1.15	0.951	1.17	0.963	0.676	0.874	0.564
I fixed	0.173	0.629	0.659	0.706	0.739	0.642	1.02	1.06	2.64
K fixed	0.33	0.98	1.26	1.41	2.09	0.998	0.879	1.38	0.445
L fixed	0.222	0.703	0.831	0.783	1.11	0.968	0.896	1.26	1.69
M fixed	0.21	0.817	0.743	0.789	0.941	1.98	1.33	1.18	1.47
N fixed	0.289	1.42	1.25	1.01	0.737	1.37	0.989	0.73	0.468
P fixed	0.787	0.896	1.16	1.07	1.93	0.385	1.84	0.908	1.22
Q fixed	0.235	1.31	1.06	1.08	0.675	2.58	1.18	1.07	0.952
R fixed	0.423	1.32	1.53	1.58	1.57	0.943	0.987	1.22	1.62
V fixed	0.182	0.922	1.04	0.718	0.666	0.578	1.09	1.05	1.62
W fixed	0.276	0.973	0.817	1.4	0.748	0.492	0.722	0.686	0.535
Y fixed	0.243	0.78	0.905	0.886	1.32	0.678	0.699	0.908	1.62
pThr fixed	0.209	0.696	0.57	0.427	0.206	0.356	0.514	0.564	0.342
pTyr fixed	0.171	0.697	0.61	0.46	0.303	0.826	0.466	0.576	1.04

ACVR1, construct: aa175-end (from UniProt Q04771)
relative phosphorylation
Settings	at +1	at +2	at +3	at +4	at -1	at -2	at -3	at -4	at -5
A fixed	0.713	0.98	0.912	0.81	0.74	0.525	0.897	0.886	1.13
D fixed	1.5	1.84	1.47	1.69	1.48	1.93	1.51	1.64	1.22
E fixed	4.11	1.99	1.81	1.76	1.68	6.6	1.78	1.44	1.15
F fixed	0.752	0.713	0.962	1.01	0.857	0.467	0.944	0.88	1.08
G fixed	0.737	1.39	0.909	0.972	0.515	0.715	1.22	1.15	1.12
H fixed	0.787	1.15	0.932	0.918	1.04	0.55	1.03	0.953	1.03
I fixed	0.87	0.581	0.762	0.804	0.985	0.511	0.885	0.946	0.896
K fixed	0.382	0.709	0.53	0.676	0.572	0.406	0.651	0.77	0.938
L fixed	0.728	0.616	0.856	0.738	1.35	0.678	0.899	0.958	0.861
M fixed	0.795	0.683	0.97	0.955	1.62	0.89	1.02	0.94	0.964
N fixed	0.771	0.927	1.04	1.01	1	0.714	1.12	0.803	0.948
P fixed	0.375	1.02	1.1	0.976	0.49	0.404	0.937	0.872	0.91
Q fixed	0.726	0.876	0.857	1.01	0.846	0.739	0.775	0.791	0.739
R fixed	0.453	0.868	0.647	0.714	0.673	0.531	0.781	0.769	0.902
V fixed	1.19	0.638	0.847	0.783	0.975	0.462	0.732	0.834	0.954
W fixed	1.04	0.82	1.26	1.26	0.903	0.458	0.864	1.23	1.18
Y fixed	1.07	1.19	1.14	0.927	1.27	0.429	0.972	1.15	0.997
pThr fixed	2.36	1.57	1.05	1.59	1.04	1.8	1.41	1.05	1.06
pTyr fixed	2.25	1.4	1.32	1.25	1.37	0.678	1.37	1.22	1.17

ACVR2B, construct: aa161-end (from UniProt Q13705)
relative phosphorylation
Settings	at +1	at +2	at +3	at +4	at -1	at -2	at -3	at -4	at -5
A fixed	0.595	1.11	0.975	1.11	0.803	0.672	0.922	0.979	0.962
D fixed	2.06	1.33	0.992	1.24	1.46	3.9	1.99	1.75	1.81
E fixed	3.92	1.1	1.26	1.18	1.31	5.09	2	1.49	1.53
F fixed	0.786	0.848	0.958	0.819	1.01	0.514	0.898	1.06	1.03
G fixed	0.531	1.27	1.09	0.987	0.57	0.472	0.941	1.07	0.878
H fixed	0.823	0.877	0.867	0.955	1.01	0.664	0.928	1.04	0.88
I fixed	0.875	0.985	1	0.924	0.746	0.396	0.77	0.78	0.752
K fixed	0.372	0.75	0.617	0.767	0.554	0.403	0.722	0.644	0.734
L fixed	0.752	0.69	1.17	0.901	1.38	0.532	0.725	0.88	0.8
M fixed	0.917	0.868	1.03	0.887	1.37	0.458	0.802	0.853	0.878
N fixed	0.742	0.933	0.887	0.905	0.948	0.876	0.987	0.971	1.01
P fixed	0.316	1.41	1.18	1.22	0.595	0.335	0.784	0.913	0.905
Q fixed	1.02	0.859	0.904	0.994	0.81	0.659	0.947	0.838	0.847
R fixed	0.374	0.826	0.769	0.827	0.531	0.45	0.621	0.626	0.802
V fixed	1.06	1.13	0.98	0.941	1.04	0.534	0.892	0.883	0.924
W fixed	0.969	0.954	1.13	1.33	1.56	0.512	1.11	1.2	1.23
Y fixed	0.886	1.07	1.19	0.998	1.31	0.527	0.963	1.03	1.03
pThr fixed	4.33	1.49	1.08	1.29	1.86	1.18	1.78	1.34	1.29
pTyr fixed	2.48	1.11	1.19	1.08	1.85	0.886	2.34	1.45	1.26
